Assay results taken from patent publication US20230212587A1, “Mutant Hydroxyphenylpyruvate Dioxygenase Polypeptide, Encoding Gene Thereof and Use Therefor” (Beijing Dabeinong Biotechnology Co., Ltd., priority 2019, published 2023).

System: Arabidopsis thaliana T1 plants
Experiment: Topramezone tolerance of transgenic Arabidopsis thaliana T1 plants (pesticide damage grade by bleached leaf area, score, resistance evaluation)
Format: in vivo
Conditions: for tolerance to topramezone, in words: Arabidopsis thaliana T1 plants sprayed with topramezone; for Grade 0 / Grade 1 / Grade 2 / Grade 3 / score / Resistance Grade: non-372 position mutants; for Grade 0 / Grade 1 / Grade 2 / Grade 3: number of plants (of 20) in this grade; for score / Scores: score for pesticide damage 0-100; for Classification and statistics of pesticide damage grade Grade 0 / Classification and statistics of pesticide damage grade Grade 1 / Classification and statistics of pesticide damage grade Grade 2 / Classification and statistics of pesticide damage grade Grade 3 / Scores / Resistance evaluation: HPPDs from different species, 7 DAT; for Classification and statistics of pesticide damage grade Grade 0 / Classification and statistics of pesticide damage grade Grade 1 / Classification and statistics of pesticide damage grade Grade 2 / Classification and statistics of pesticide damage grade Grade 3: number of plants (of 16) in this grade
Description: The Arabidopsisthaliana T1 plants into which the AsHPPDm-F372A-02 nucleotide sequence was introduced, Arabidopsis thaliana T1 plants into which the AsHPPD-02 nucleotide sequence was introduced and wild-type Arabidopsisthaliana plants (18 days after sowing) were sprayed with topramezone at four different concentrations, i.e., 25 g ai/ha (one-fold field concentration, 1×), 50 g ai/ha (two-fold field concentration, 2×), 100 g ai/ha (four-fold field concentration, 4×) and 0 g ai/ha (water, 0×) to determine the tolerance of Arabidopsisthaliana to the herbicide. The degree of damage caused by the herbicide was measured for each plant according to the proportion of bleached leaf area (the proportion of bleached leaf area=bleached leaf area/total leaf area×100%) 7 days after spraying (7 DAT): the case where there is basically no bleached phenotype is defined as grade 0, the case where the proportion of bleached leaf area is less than 50% is defined as grade 1,the case where the proportion of bleached leaf area is more than 50% is defined as grade 2, and the case where the proportion of bleached leaf area is 100% grade is defined as grade 3.
(§1) According to the method as described above in point 6 of Example 1, the aforementioned Arabidopsisthaliana T1 plants and wild-type Arabidopsisthaliana plants (18 days after sowing) were sprayed with topramezone at three different concentrations respectively, i.e., 25 g ai/ha (one-fold field concentration, 1×), 100 g ai/ha (four-fold field concentration, 4×) and 0 g ai/ha(water, 0×) to detect the tolerance of Arabidopsisthaliana to the herbicide.
as §1, with “1x),” for “1×),”, “4x)” for “4×)”, “ai/ha (water, 0x)” for “ai/ha(water, 0×)”
According to the method as described above in point 6 of Example 1, the above-mentioned Arabidopsisthaliana T1 plants, Arabidopsisthaliana T1 plants into which the AsHPPD-02 nucleotide sequence was introduced, Arabidopsisthaliana T1 plants into which the PfHPPD-02 nucleotide sequence was introduced, and wild-type Arabidopsisthaliana plants (18 days after sowing) were sprayed with topramezone at four different concentrations respectively, that is, 25 g ai/ha (one-fold field concentration, 1x), 50 g ai/ha (two-fold field concentration, 2x), 100 g ai/ha (four-fold field concentration, 4x) and 0 g ai/ha (water, Ox) to detect the herbicide tolerance of Arabidopsisthaliana.
According to the method as described in point 6 of Example 1, the above-mentioned Arabidopsisthaliana T1 plants and wild-type Arabidopsisthaliana plants (18 days after sowing) were sprayed with topramezone at two different concentrations respectively, that is, 25 g ai/ha (one-fold field concentration, 1x) and 100 g ai/ha (four-fold field concentration, 4x) to detect the herbicide tolerance of Arabidopsisthaliana,. […]

Molecule | tolerance to topramezone, in words | Grade 0 (topramezone 25 g ai/ha (1x)) | Grade 1 (topramezone 25 g ai/ha (1x)) | Grade 2 (topramezone 25 g ai/ha (1x)) | Grade 3 (topramezone 25 g ai/ha (1x)) | Grade 0 (topramezone 100 g ai/ha (4x)) | Grade 1 (topramezone 100 g ai/ha (4x)) | Grade 2 (topramezone 100 g ai/ha (4x)) | Grade 3 (topramezone 100 g ai/ha (4x)) | score (topramezone 25 g ai/ha (1x)) | score (topramezone 100 g ai/ha (4x)) | Resistance Grade (topramezone 25 g ai/ha (1x)) | Resistance Grade (topramezone 100 g ai/ha (4x)) | Classification and statistics of pesticide damage grade Grade 0 (topramezone 25 g ai/ha (1x)) | Classification and statistics of pesticide damage grade Grade 1 (topramezone 25 g ai/ha (1x)) | Classification and statistics of pesticide damage grade Grade 2 (topramezone 25 g ai/ha (1x)) | Classification and statistics of pesticide damage grade Grade 3 (topramezone 25 g ai/ha (1x)) | Classification and statistics of pesticide damage grade Grade 0 (topramezone 100 g ai/ha (4x)) | Classification and statistics of pesticide damage grade Grade 1 (topramezone 100 g ai/ha (4x)) | Classification and statistics of pesticide damage grade Grade 2 (topramezone 100 g ai/ha (4x)) | further results
AsHPPDm-Q284A: Avena sativa HPPD mutant Q284A, SEQ ID NO: 420 (protein, AsHPPDm-Q284A Amino Acid Sequence) MPPTPATATGAAAAAVTPEHAARSFPRVVRVNPRSDRFPVLSFHHVELWCADAASAAGRFSFALGAPLAARSDLSTGNSAHASLLLRSGALAFLFTAPYAPPPQEAATAAATASIPSFSADAARTFAAAHGLAVRSVGVRVADAAEAFRVSVAGGARPAFAPADLGHGFGLAEVELYGDVVLRFVSYPDETDLPFLPGFERVSSPGAVDYGLTRFDHVVGNVPEMAPVIDYMKGFLGFHEFAEFTAEDVGTTESGLNSVVLANNSEAVLLPLNEPVHGTKRRSAIQTYLEYHGGPGVQHIALASNDVLRTLREMRARTPMGGFEFMAPPQAKYYEGVRRIAGDVLSEEQIKECQELGVLVDRDDQGVLLQIFTKPVGDRPTFFLEMIQRIGCMEKDEVGQEYQKGGCGGFGKGNFSELFKSIEDYEKSLEVKQSVVAQKS | no significant difference | 0 | 2 | 16 | 2 | 0 | 0 | 5 | 15 | 67 | 92 | poorly resistant (poorly resistant plants (scores 34-67)) | non-resistant (non-resistant plants (scores 68-100)) | – | – | – | – | – | – | – | –
AsHPPDm-L359W: Avena sativa HPPD mutant L359W, SEQ ID NO: 422 (protein, AsHPPDm-L359W Amino Acid Sequence) MPPTPATATGAAAAAVTPEHAARSFPRVVRVNPRSDRFPVLSFHHVELWCADAASAAGRFSFALGAPLAARSDLSTGNSAHASLLLRSGALAFLFTAPYAPPPQEAATAAATASIPSFSADAARTFAAAHGLAVRSVGVRVADAAEAFRVSVAGGARPAFAPADLGHGFGLAEVELYGDVVLRFVSYPDETDLPFLPGFERVSSPGAVDYGLTRFDHVVGNVPEMAPVIDYMKGFLGFHEFAEFTAEDVGTTESGLNSVVLANNSEAVLLPLNEPVHGTKRRSQIQTYLEYHGGPGVQHIALASNDVLRTLREMRARTPMGGFEFMAPPQAKYYEGVRRIAGDVLSEEQIKECQELGVWVDRDDQGVLLQIFTKPVGDRPTFFLEMIQRIGCMEKDEVGQEYQKGGCGGFGKGNFSELFKSIEDYEKSLEVKQSVVAQKS | no significant difference | 0 | 0 | 2 | 18 | 0 | 0 | 0 | 20 | 97 | 100 | non-resistant (non-resistant plants (scores 68-100)) | non-resistant (non-resistant plants (scores 68-100)) | – | – | – | – | – | – | – | –
AsHPPDm-F415A: Avena sativa HPPD mutant F415A, SEQ ID NO: 424 (protein, AsHPPDm-F415A Amino Acid Sequence) MPPTPATATGAAAAAVTPEHAARSFPRVVRVNPRSDRFPVLSFHHVELWCADAASAAGRFSFALGAPLAARSDLSTGNSAHASLLLRSGALAFLFTAPYAPPPQEAATAAATASIPSFSADAARTFAAAHGLAVRSVGVRVADAAEAFRVSVAGGARPAFAPADLGHGFGLAEVELYGDVVLRFVSYPDETDLPFLPGFERVSSPGAVDYGLTRFDHVVGNVPEMAPVIDYMKGFLGFHEFAEFTAEDVGTTESGLNSVVLANNSEAVLLPLNEPVHGTKRRSQIQTYLEYHGGPGVQHIALASNDVLRTLREMRARTPMGGFEFMAPPQAKYYEGVRRIAGDVLSEEQIKECQELGVLVDRDDQGVLLQIFTKPVGDRPTFFLEMIQRIGCMEKDEVGQEYQKGGCGGFGKGNASELFKSIEDYEKSLEVKQSVVAQKS | no significant difference | 0 | 6 | 12 | 2 | 0 | 0 | 0 | 20 | 60 | 100 | poorly resistant (poorly resistant plants (scores 34-67)) | non-resistant (non-resistant plants (scores 68-100)) | – | – | – | – | – | – | – | –
CsHPPD-02: native Cucumis sativus HPPD, SEQ ID NO: 117 (protein, listed as Cucumis sativus, CsHPPD Amino Acid Sequence) MGKEADFPRAPSEATDGGATASQSEFELQGFDNFIRTNPKSDRFKVKRFHHIEFWCTDATNVARRFSWGLGMQIVAKSDLSTGNMTHASYLLRSGHLCFLFTAPYSPSIAAAQNLTPASTASIPSFDHSVCRSFSGTHGFGARAIALEVEDAEIAFRTSVAHGAKPSCPPIVLENRAVLSEVHLYGDVVLRYISYKNPVSGDNGENKPDEWFLPKFEAMEETASFPLDFGIRRLDHAVGNVPELGPAVSYLKGFTGFHEFAEFTAEDVGTSESGLNSMVLANNEEMVLLPINEPVFGTKRKSQIQTYLEHNEGAGVQHLALMSEDIFRTLREMRKRSSVGGFEFMPSPPPTYYKNLKSRAGDVLTDEQIKECEELGILVDKDDQGTLLQIFTKPVGDRPTIFIEIIQRLGCMMKDEEGKAFQKGGCGGFGKGNFSELFKSIEEYEKTLEAKRVSE | – | – | – | – | – | – | – | – | – | – | – | – | – | 0 | 0 | 0 | 16 | 0 | 0 | 0 | Classification and statistics of pesticide damage grade Grade 3 (topramezone 100 g ai/ha (4x)): 16; Scores (topramezone 25 g ai/ha (1x)): 100; Scores (topramezone 100 g ai/ha (4x)): 100; Resistance evaluation (topramezone 25 g ai/ha (1x)): non-resistant (non-resistant plants (scores 68-100)); Resistance evaluation (topramezone 100 g ai/ha (4x)): non-resistant (non-resistant plants (scores 68-100))
NtHPPDm-F372A-02: Nicotiana tabacum HPPD mutant F372A, SEQ ID NO: 114 (protein, NtHPPDm-F372A Amino Acid Sequence) MGKLETVTTTSAAAADDSSELTTNFKLVGFKNFIRTNPRSDFFSVKSFHHIEFWCGDATNTARRFSWSLGMPIAAKSDLSTGNSVHASYLLRPVSGSLQFLFTAPYSPSISTPSSAAIPSFSTSTHRSFTTTHGLGVRAVALEVENAYTAFSASVSRGAKPMFEPVTIDEQVAMAEVHLYGDVVLRFVSYLKDADNLVFLPGFEAMDETASYKELDYGIRRLDHAVGNVPELGPVVDYIKRFTGFHEFAEFTAEDVGTAESGLNSMVLANNDETVLLPLNEPVYGTKRKSQIQTYLEHNEGAGVQHLALVTEDIFKTLTEMRKRSGVGGFEFMPSPPPTYYKNLKNRAGDVLSDEQILACEELGILVDRDDQGTLLQIATKPVGDRPTIFIEIIQRIGCMLKDGKGQVYQKGGCGGFGKGNFSELFRSIEEYEKTLEAKQANQVAAA | – | – | – | – | – | – | – | – | – | – | – | – | – | 0 | 6 | 10 | 0 | 0 | 0 | 0 | Classification and statistics of pesticide damage grade Grade 3 (topramezone 100 g ai/ha (4x)): 16; Scores (topramezone 25 g ai/ha (1x)): 54; Scores (topramezone 100 g ai/ha (4x)): 100; Resistance evaluation (topramezone 25 g ai/ha (1x)): poorly resistant (poorly resistant plants (scores 34-67)); Resistance evaluation (topramezone 100 g ai/ha (4x)): non-resistant (non-resistant plants (scores 68-100))
